In the supplement of paper PMC12764529:
± gives the half width of the 95% confidence interval.

Key:
[1] = folding stability dG unfold from trypsin proteolysis; higher = more stable
Method in brief: (§1)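 Digests were run with trypsin and chymotrypsin at 11 concentrations in threefold dilutions, plus a no-protease condition, on designed mini-proteins in a PA-tagged cDNA display construct. The mini-proteins were under 80 residues, had no cysteine, and were kept only when AlphaFold2 dimer inter-PAE was above 15. After sequencing, Bayesian fitting of the counts gave K50, from which unfolding free energy was derived against a sequence-predicted unfolded-state K50 and a shared folded-state K50, per protease or combined.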

[2] = folding stability dG unfold (combined trypsin and chymotrypsin); higher = more stable
Method in brief: as §1

[3] = folding stability dG unfold from chymotrypsin proteolysis; higher = more stable
Method in brief: as §1

Sequence: SAGGSAGGSKPNEIKIKKIKIEVKIKKKKVDKEKGEEIYEIEEVKIEIEEITLSKEELEKLLKSAGGSAGGS [r12_723_TrROS_Hall]
- folding stability dG unfold [1]: 1.54 ± 0.097 kcal/mol
- folding stability dG unfold [2]: 1.94 ± 0.12 kcal/mol
- folding stability dG unfold [3]: 2.06 ± 0.088 kcal/mol

Sequence: SAGGSAGGSKPVLVKVERKEVEVPLPDGTPGKVFVVKVTVLGENEPLAEKTYLFASEEEAKESSAGGSAGGS [r12_461_TrMRF]
- folding stability dG unfold [1]: 0.102 ± 0.076 kcal/mol
- folding stability dG unfold [2]: 0.595 ± 0.13 kcal/mol
- folding stability dG unfold [3]: 0.761 ± 0.17 kcal/mol

Sequence: SAGGSAGGSKSKKYIEIDFSNLTEIKFNPNTNYATAIFKDKGKIYIAKIHFLPNGKAIAEVFDSAGGSAGGS [r12_839_TrMRF]
- folding stability dG unfold [1]: 1.67 ± 0.054 kcal/mol
- folding stability dG unfold [2]: 2.68 ± 0.077 kcal/mol
- folding stability dG unfold [3]: 2.931 ± 0.025 kcal/mol

Sequence: SAGGSAGGSKSYEIKEITFDPENNTITIVLVAPDGKIVRTETFKPGEEVVFTFENGEKVTVKASAGGSAGGS [r12_441_TrMRF]
- folding stability dG unfold [1]: 1.99 ± 0.059 kcal/mol
- folding stability dG unfold [2]: 2.54 ± 0.05 kcal/mol
- folding stability dG unfold [3]: 2.828 ± 0.008 kcal/mol

Sequence: SAGGSAGGSKTVTLTLTLPGKKITFTLTEDGTVRMTVYNEKTGEKVKEITVPAKNLEELLKALSAGGSAGGS [r20_129_TrROS_Hall]
- folding stability dG unfold [1]: 3.02 ± 0.085 kcal/mol
- folding stability dG unfold [2]: 4.29 ± 0.066 kcal/mol
- folding stability dG unfold [3]: 4.63 ± 0.064 kcal/mol

Sequence: SAGGSAGGSKVLIIEPEENKELAEKIAKELKEKGELGEVEIKTFSSPEEAKEYAKNYDIVITGSAGGSAGGS [r12_679_TrMRF]
- folding stability dG unfold [1]: -0.0715 ± 0.22 kcal/mol
- folding stability dG unfold [2]: 0.302 ± 0.14 kcal/mol
- folding stability dG unfold [3]: 0.528 ± 0.17 kcal/mol

Sequence: SAGGSAGGSLDPGEEVKIEITDWHPPNGYYRIKIEFPNGPPIDIWMPPDDPQQMKEQAKDLIKSAGGSAGGS [r20_167_TrROS]
- folding stability dG unfold [1]: -0.725 ± 0.46 kcal/mol
- folding stability dG unfold [2]: 0.107 ± 0.23 kcal/mol
- folding stability dG unfold [3]: 0.372 ± 0.36 kcal/mol

Sequence: SAGGSAGGSLEKIKEALKKAGYPPENVVIEVKTLPNGEIVITVKYNGKEIPKEIVEEAIKKLKSAGGSAGGS [r12_175_JUSTAS]
- folding stability dG unfold [1]: 2.69 ± 0.081 kcal/mol
- folding stability dG unfold [2]: 3.45 ± 0.066 kcal/mol
- folding stability dG unfold [3]: 3.72 ± 0.08 kcal/mol

Sequence: SAGGSAGGSLHPSQPLLVTVEVEVDPETGTVRLRVSVWVPGPRERLLERELEVPLHSLPEGALSAGGSAGGS [r12_145_TrMRF]
- folding stability dG unfold [1]: 1.69 ± 0.039 kcal/mol
- folding stability dG unfold [2]: 2.25 ± 0.091 kcal/mol
- folding stability dG unfold [3]: 2.49 ± 0.015 kcal/mol

Sequence: SAGGSAGGSLKKGEKVKLRARIYEPGGGKLLAELEIEADVGKAEEIAEELRKAFPGYEVEIELSAGGSAGGS [r12_21_TrMRF]
- folding stability dG unfold [1]: 2.67 ± 0.036 kcal/mol
- folding stability dG unfold [2]: 3.04 ± 0.07 kcal/mol
- folding stability dG unfold [3]: 3.24 ± 0.057 kcal/mol

Sequence: SAGGSAGGSLNPEKPSVRIRIKVQKPDGSYEEIDIEVPFQDIPDVIDELKKKGYKILSIELEPSAGGSAGGS [r12_986_TrMRF]
- folding stability dG unfold [1]: 4.45 ± 0.18 kcal/mol
- folding stability dG unfold [2]: 4.37 ± 0.18 kcal/mol
- folding stability dG unfold [3]: 4.31 ± 0.08 kcal/mol

Sequence: SAGGSAGGSLSDLPPGVELIAVGDDVVAVRRPDGSVLVFVRERDRVFVRELSPDVSIEEALADSAGGSAGGS [r12_605_TrMRF]
- folding stability dG unfold [1]: 1.32 ± 0.029 kcal/mol
- folding stability dG unfold [2]: 1.44 ± 0.057 kcal/mol
- folding stability dG unfold [3]: 1.52 ± 0.068 kcal/mol

Sequence: SAGGSAGGSLSLPEGFKLSSLVSVEELPGVLRIYFLDPEKPLLYEVVYDLETGEQTVERIPIGSAGGSAGGS [r12_206_JUSTAS]
- folding stability dG unfold [1]: 2.43 ± 0.065 kcal/mol
- folding stability dG unfold [2]: 2.5 ± 0.072 kcal/mol
- folding stability dG unfold [3]: 2.6 ± 0.051 kcal/mol

Sequence: SAGGSAGGSLTIRFPEELSPEEAVELAEGLVRELFPEDVPVTVTVVFYDPETGEELTIPAELASAGGSAGGS [r12_1051_TrMRF]
- folding stability dG unfold [1]: 1.49 ± 0.039 kcal/mol
- folding stability dG unfold [2]: 1.43 ± 0.044 kcal/mol
- folding stability dG unfold [3]: 1.35 ± 0.025 kcal/mol

Sequence: SAGGSAGGSLTVSFPGITLTLETVPGTGKIIATVTFPGGEVRTISSDVPLSELPPVVREALELLSAGGSAGG [r6_749_JUSTAS]
- folding stability dG unfold [1]: 2.72 ± 0.087 kcal/mol
- folding stability dG unfold [2]: 2.74 ± 0.072 kcal/mol
- folding stability dG unfold [3]: 2.67 ± 0.051 kcal/mol

Sequence: SAGGSAGGSLVLPDDYKVIVREFDLSDVGRAVREVMEEFDVKDALFLAVPLPGKVLLFVVVKESAGGSAGGS [r12_929_TrMRF]
- folding stability dG unfold [1]: 2.95 ± 0.098 kcal/mol
- folding stability dG unfold [2]: 2.99 ± 0.21 kcal/mol
- folding stability dG unfold [3]: 2.9 ± 0.076 kcal/mol

Sequence: SAGGSAGGSMEELPEGAELIREEDGVAVVRNENGELLVVRRVDGKLEVRRFPPGMSIEEALAKSAGGSAGGS [r12_605_TrROS_Hall]
- folding stability dG unfold [1]: 2.95 ± 0.064 kcal/mol
- folding stability dG unfold [2]: 3.05 ± 0.045 kcal/mol
- folding stability dG unfold [3]: 3.07 ± 0.04 kcal/mol

Sequence: SAGGSAGGSMELDEDGRLIVRIKVRDKETKEWKEIEIELPGLTEEEIRKLAEELGAEEIEILPSAGGSAGGS [r12_792_TrROS_Hall]
- folding stability dG unfold [1]: 2.35 ± 0.061 kcal/mol
- folding stability dG unfold [2]: 2.43 ± 0.078 kcal/mol
- folding stability dG unfold [3]: 2.39 ± 0.083 kcal/mol

Sequence: SAGGSAGGSMELVIKTVTVNSPSKSPEELAKEIEEKYGVKILKVEVTEDPEGGVTVTATIINKSAGGSAGGS [r12_359_JUSTAS]
- folding stability dG unfold [1]: 1.72 ± 0.065 kcal/mol
- folding stability dG unfold [2]: 1.49 ± 0.041 kcal/mol
- folding stability dG unfold [3]: 1.34 ± 0.015 kcal/mol

Sequence: SAGGSAGGSMELVIPKEEVEKMSEEVVKKIKELAKKANISISETEDSLVIPIKKVSEKVIKELSAGGSAGGS [r12_945_JUSTAS]
- folding stability dG unfold [1]: -0.325 ± 0.075 kcal/mol
- folding stability dG unfold [2]: 0.232 ± 0.1 kcal/mol
- folding stability dG unfold [3]: 0.497 ± 0.045 kcal/mol

Sequence: SAGGSAGGSMEPRPVVITFRDPEGNFIGTVELPAEFESEEEALAAAEAVRAANPGYTVEIEGLSAGGSAGGS [r20_201_JUSTAS]
- folding stability dG unfold [1]: 1.67 ± 0.084 kcal/mol
- folding stability dG unfold [2]: 1.87 ± 0.07 kcal/mol
- folding stability dG unfold [3]: 1.98 ± 0.033 kcal/mol

Sequence: SAGGSAGGSMETITLPEDVKVEVVEVEPGSVIEVEFEDGLVARVRIDPENLEKVEIEVFPKEESAGGSAGGS [r12_648_TrROS_Hall]
- folding stability dG unfold [1]: -0.0965 ± 0.16 kcal/mol
- folding stability dG unfold [2]: 0.694 ± 0.17 kcal/mol
- folding stability dG unfold [3]: 0.826 ± 0.16 kcal/mol

Sequence: SAGGSAGGSMETRTFDSEEELRASVSVPSSLSVTFERRPGRWEVRIEPPLSPEEIAAQRARLLSAGGSAGGS [r12_274_JUSTAS]
- folding stability dG unfold [1]: -0.346 ± 0.17 kcal/mol
- folding stability dG unfold [2]: -0.553 ± 0.11 kcal/mol
- folding stability dG unfold [3]: -1.07 ± 0.6 kcal/mol

Sequence: SAGGSAGGSMETTREELPPELTVERVTEREPGEGRITVRVKVYRPDGTLLSEEVVERDPEDLESAGGSAGGS [r12_240_JUSTAS]
- folding stability dG unfold [1]: 0.319 ± 0.053 kcal/mol
- folding stability dG unfold [2]: 0.295 ± 0.097 kcal/mol
- folding stability dG unfold [3]: 0.166 ± 0.14 kcal/mol

Sequence: SAGGSAGGSMETVTVLLNTPGTPVTFTFPVPAGVGEEAVKELVRKALPEVEIEVVEITTTPAASAGGSAGGS [r12_427_JUSTAS]
- folding stability dG unfold [1]: 0.338 ± 0.073 kcal/mol
- folding stability dG unfold [2]: 0.463 ± 0.15 kcal/mol
- folding stability dG unfold [3]: 0.585 ± 0.21 kcal/mol

Sequence: SAGGSAGGSMETVVTVPLPDGRTLTITRYPDGTVTVTYPDGTPVATRPVAPDTSDEAVVAALASAGGSAGGS [r12_990_JUSTAS]
- folding stability dG unfold [1]: 0.522 ± 0.016 kcal/mol
- folding stability dG unfold [2]: 1.54 ± 0.037 kcal/mol
- folding stability dG unfold [3]: 1.83 ± 0.023 kcal/mol

Sequence: SAGGSAGGSMEVTVTPLPDGSLLVTVTVTTSSTPVPVELRFPPSASLEEIRAAAEARAAEVAASAGGSAGGS [r12_69_JUSTAS]
- folding stability dG unfold [1]: 0.883 ± 0.029 kcal/mol
- folding stability dG unfold [2]: 1.57 ± 0.047 kcal/mol
- folding stability dG unfold [3]: 1.73 ± 0.025 kcal/mol

Sequence: SAGGSAGGSMFKVIVESEDPEKALEEAKALIEKIEEEGIGEIKKFEFLIVPKDIPEYKKLKEKSAGGSAGGS [r12_551_TrMRF]
- folding stability dG unfold [1]: -0.306 ± 0.45 kcal/mol
- folding stability dG unfold [2]: -0.0656 ± 0.3 kcal/mol
- folding stability dG unfold [3]: 0.438 ± 0.18 kcal/mol

Sequence: SAGGSAGGSMGVTVTSEEDPEVRRVRETIETPSGSVVERDMVLTRPPDGPLLREALSEKVFRPSAGGSAGGS [r12_758_JUSTAS]
- folding stability dG unfold [1]: -0.324 ± 0.15 kcal/mol
- folding stability dG unfold [2]: -0.582 ± 0.28 kcal/mol
- folding stability dG unfold [3]: -1.18 ± 0.48 kcal/mol

Sequence: SAGGSAGGSMIIIVKLPNGEELPIEVEGEEEAEKIAEEIVKALIEKGITPVSVEIRPIKPEEGSAGGSAGGS [r12_301_TrMRF]
- folding stability dG unfold [1]: 3.13 ± 0.13 kcal/mol
- folding stability dG unfold [2]: 2.97 ± 0.21 kcal/mol
- folding stability dG unfold [3]: 2.28 ± 0.17 kcal/mol

Sequence: SAGGSAGGSMIIRIKTENGEEIEIEAESEEEAKKAAEELKKELEEKGYKIEEVEIYEIPEEELSAGGSAGGS [r12_301_TrROS_Hall]
- folding stability dG unfold [1]: 1.13 ± 0.076 kcal/mol
- folding stability dG unfold [2]: 2.05 ± 0.26 kcal/mol
- folding stability dG unfold [3]: 2.32 ± 0.13 kcal/mol

Sequence: SAGGSAGGSMIKRTVTVTVYFPGKPLSIPVEYTSEEELPVVAEEAVKPIIEKVPEYKIPEPKLSAGGSAGGS [r12_230_JUSTAS]
- folding stability dG unfold [1]: 0.529 ± 0.21 kcal/mol
- folding stability dG unfold [2]: 0.561 ± 0.33 kcal/mol
- folding stability dG unfold [3]: 0.292 ± 0.2 kcal/mol

Sequence: SAGGSAGGSMIVKLEDGTYLVRIVNKDTKEVIEIEVSAEEAEELAKELNIEKVEIVKAGEPLESAGGSAGGS [r12_294_TrROS_Hall]
- folding stability dG unfold [1]: 1.78 ± 0.069 kcal/mol
- folding stability dG unfold [2]: 2.38 ± 0.17 kcal/mol
- folding stability dG unfold [3]: 2.71 ± 0.059 kcal/mol

Sequence: SAGGSAGGSMIVVPESVSPEEAEATARQVAQELGISPDTPLEVEIKEVKTGENSVYEIRVTLRSAGGSAGGS [r12_252_JUSTAS]
- folding stability dG unfold [1]: 0.097 ± 0.056 kcal/mol
- folding stability dG unfold [2]: 0.199 ± 0.092 kcal/mol
- folding stability dG unfold [3]: 0.19 ± 0.13 kcal/mol

Sequence: SAGGSAGGSMKIKVEVEMEKVKDPKKKGEYIYKMKIKKVEIELSEEEKEKLKELAEKLGIEVESAGGSAGGS [r12_249_TrROS_Hall]
- folding stability dG unfold [1]: 1.42 ± 0.066 kcal/mol
- folding stability dG unfold [2]: 2.08 ± 0.17 kcal/mol
- folding stability dG unfold [3]: 2.35 ± 0.074 kcal/mol
